# Measured values taken from patent US20060287243A1, “Stable pharmaceutical compositions including motilin-like peptides” (priority 2005, published 2006).
# Square brackets hold non-standard residues; d marks the D form.
# Legend:
# Type in all cases: physicochemical
# [1] = Stability of motilin-like peptide following autoclaving and storage (HPLC, undegraded peptide remaining); conditions: 30 μg/ml in 10 mM sodium acetate buffer pH 5.0, Type I glass vials, autoclaved 121° C. 15 minutes, storage 3 months at 55° C. (FIG. 2)
# Excerpt: A further advantage of the pharmaceutical composition of the present invention is its peptide stability when the composition is subjected to elevated temperatures such as the temperature of steam sterilization. Many peptides are inherently unstable and, when subjected to heat, are known to degrade very rapidly, typically in a few minutes or less. In contrast, in compositions of the present invention, the peptide substantially retains its stability (i.e., remains substantially undegraded and retains a substantial percentage of its initial potency), even after the composition is (1) subjected to steam sterilization (for at least 10 minutes and up to 60 minutes at temperatures of approximately 100° C.-128° C. and typically 121° C.), and (2) subsequently stored in a suitable container (described below) at lower temperatures typically encountered by a pharmaceutical composition, such as about 4° C.-5° C. to about 25° C.
# The motilin-like peptide of SEQ ID NO.: 1 was dissolved at a concentration of 30 μg/ml in 10 mM sodium acetate buffer, pH 5.0. […] The potency of the peptide following storage at each temperature was measured over time by testing samples after incubation of one week, two weeks, three weeks, one month and three months. Potency was determined by using HPLC to measure the amount of undegraded peptide remaining in each sample. […]
# [2] = Stability of lyophilized formulations of motilin-like peptide, reconstituted in water (HPLC); conditions: 30 μg/ml in 10 mM citrate buffer, 1% w/v sucrose, pH 6.0, lyophilized, stored in 20 ml vial at 40° C. for several months (FIG. 5)
# Description: The motilin-like peptide including SEQ ID NO.: 1 was dissolved at a concentration of 30 μg/ml in 10 mM citrate buffer and 1% w/v of sucrose (bulking agent) at pH 6.0. The composition was lyophilized by standard techniques and stored in a 20 ml vial at 40° C. The potency of the motilin-like peptide was measured at the time intervals indicated in FIG. 5, by reconstituting the composition in water. Potency was determined by using HPLC to measure the amount of undegraded peptide remaining in each sample. […] (Again, it will be appreciated by those skilled in the art that the stability of pharmaceutical compositions at elevated temperatures, such as 40° C. as in FIG. 5, may serve as the basis of prediction of stability for longer periods at more typical storage temperatures, such as approximately 20° C.-25° C. or 4° C.-8° C., for example).
# [3] = Long-term storage stability of the aqueous buffered composition; conditions: pH between approximately 3 and 9, preferably 4.8-5.2
# Description: The aqueous pharmaceutical compositions of the present invention provides benefits previously unknown. The motilin-like peptide of pharmaceutical compositions of the present invention remains stable when stored over a wide range of temperatures for extended periods of time. For example, when stored at room temperature or its preferred lower storage temperature of 4° C.-5° C., substantial stability is maintained for significant periods of time. For example, at a storage temperature of approximately 25° C., the peptide contained in the composition of the present invention remains stable for at least 12 months, and more preferably at least approximately 18 months and, even more preferably, up to and even beyond approximately 24 months, retaining a potency of 90% or more as shown, for example, in FIG. 1. At a storage temperature of 5° C., storage with only marginal degradation (and a potency of at least 90-95%) of up to at least 18 months is regularly observed.
# Whether prepared and stored as an aqueous unbuffered solution, an aqueous buffered solution, a ready-to-use or concentrated, or a lyophilized composition that is subsequently reconstituted, the pharmaceutical compositions of the present invention remains potent during storage for extended periods of time. […]
# [4] = Storage stability of aqueous buffered composition in Schott Type 1 vials
# Excerpt: Some plastics have also proven to be effective in assisting in the stabilization of the peptide composition. In this regard, preferred plastics are cyclic olefin copolymers, available, for example, from West Pharmaceuticals under the product name CZ resin vials, or from Schott under the product name TopPac vials, or from Alcan packaging under the product name Ticona Topas serum vials. The compositions of the present invention may also be stored in PVC, as well as non-PVC flexible bags. When stored in the above described glass or plastic containers, the above-described storage times at the above-described storage temperatures can be achieved, although for storage periods of at least 18 months, Type I Plus (vapor treated silicon) vials and Type I Plus glass ampules are preferred. […] It will be appreciated by those skilled in the art that the measured stability of pharmaceutical compositions at elevated temperatures, such as 40° C. or higher, may serve as the basis of prediction of stability for longer periods at more typical storage temperatures, such as 20°-25° C. or 4°-8° C., for example. Such “accelerated storage” studies are common in the field of the present invention.
substance,measurement,setting,value
"(Me3N)^+Phe-Val-Pro-Ile-Phe-Thr-Tyr-Gly-Glu-Leu-Gln-D-Arg-Leu-Lys-NH2 ({N,N,N‑trimethyl}-FVPIFTYGELQ[dR]LK-NH2) [SEQ ID NO.: 1, synthetic motilin-like peptide receptor agonist]",potency retained (undegraded peptide remaining by HPLC),[1],greater than 90%
same,potency retained (undegraded peptide remaining by HPLC),[2],greater than 90%
same,degradation during storage,[3],only minimal degradation
same,stability (maintenance of potency),"[4]; 30 μg/ml, several months at 5° C. to 55° C. (FIG. 4)",demonstrated stability
same,stability (maintenance of potency),"[4]; approximately 5 μg/ml, several months at 5° C. to 55° C. (FIG. 3)",demonstrated stability
